Experimental data as given in US20220119534A1 (DRAGONFLY THERAPEUTICS, published 2022).

Columns and labels:
[1] = molecular target: T1, Cynomolgus CD16 (FcγRIII) (cynomolgus monkey, UniProt Q8SPW2 17-208, biotinylated); assay: SPR 25C, average
T1 construct: Bought recombinant receptor; also called cFcγRIII; Cyno FcγRIII

[2] = molecular target: T2, Human CLEC12A-His (recombinant, K244 WT) (human, UniProt Q5QGZ9 65-265); assay: SPR, two-state fit (ka1); control (fully purified protein study)
T2 construct: Made in house (Dragonfly Tx); also called hCLEC12A; hCLEC12A-His; not shown: His tag
T2 sequence: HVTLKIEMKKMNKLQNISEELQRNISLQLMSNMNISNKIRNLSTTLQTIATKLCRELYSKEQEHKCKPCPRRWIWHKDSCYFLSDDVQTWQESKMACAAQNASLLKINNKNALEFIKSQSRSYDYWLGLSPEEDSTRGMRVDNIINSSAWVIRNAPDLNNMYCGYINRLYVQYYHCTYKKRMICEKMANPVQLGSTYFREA

[3] = molecular target: T3, Cynomolgus FcRn (cynomolgus monkey, UniProt Q8SPV9 24-297; Q8SPW0 21-119); assay: SPR 25C, pH 6.0, FcRn on chip, steady state fit (n = 3)
T3 construct: Bought recombinant receptor; also called cFcRn; cyno FcRn
T3 sequence (Q8SPV9 24-297 limits assumed, chain 1 of 2): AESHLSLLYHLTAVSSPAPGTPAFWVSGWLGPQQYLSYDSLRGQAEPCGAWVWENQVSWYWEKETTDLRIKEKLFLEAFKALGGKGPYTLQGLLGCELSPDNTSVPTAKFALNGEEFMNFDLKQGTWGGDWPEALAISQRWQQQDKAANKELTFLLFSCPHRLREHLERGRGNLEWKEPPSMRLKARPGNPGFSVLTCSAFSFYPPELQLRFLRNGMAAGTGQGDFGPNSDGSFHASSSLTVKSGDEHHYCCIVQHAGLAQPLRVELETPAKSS
T3 sequence (Q8SPW0 21-119 limits assumed, chain 2 of 2): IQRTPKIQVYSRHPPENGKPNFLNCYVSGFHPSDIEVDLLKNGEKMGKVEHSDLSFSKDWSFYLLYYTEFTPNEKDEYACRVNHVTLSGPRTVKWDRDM

[4] = molecular target: T2, Human CLEC12A-His (recombinant, K244 WT); assay: SPR, two-state fit; after forced oxidation
[5] = molecular target: T4, mFc-hNKG2D (recombinant mFc-tagged human NKG2D dimer) (human, UniProt P26718 73-216); assay: SPR; after 4 wks 40C in CST pH 7.0
T4 construct: extracellular domain; Made in house; not shown: mouse Fc tag
T4 sequence (looked up): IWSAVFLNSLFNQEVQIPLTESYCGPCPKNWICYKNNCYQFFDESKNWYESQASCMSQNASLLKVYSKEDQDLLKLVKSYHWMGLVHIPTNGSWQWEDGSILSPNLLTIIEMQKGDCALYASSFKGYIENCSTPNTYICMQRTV

[6] = molecular target: T5, Human CD16a V158 (FcγRIIIa V158) (human, UniProt P08637 17-208, biotinylated); assay: SPR; after 4 wks 40C in CST pH 7.0
T5 construct: Bought recombinant receptor; also called hCD16aV; hFcγRIIIa V158
T5 sequence (P08637 17-208 F176V limits assumed): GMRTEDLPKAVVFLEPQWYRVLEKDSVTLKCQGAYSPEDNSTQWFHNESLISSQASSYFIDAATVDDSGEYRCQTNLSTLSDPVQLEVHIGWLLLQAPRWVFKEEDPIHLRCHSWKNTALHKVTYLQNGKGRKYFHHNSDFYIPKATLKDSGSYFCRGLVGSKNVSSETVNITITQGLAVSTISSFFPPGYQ

T1 sequence (Q8SPW2 17-208 limits assumed): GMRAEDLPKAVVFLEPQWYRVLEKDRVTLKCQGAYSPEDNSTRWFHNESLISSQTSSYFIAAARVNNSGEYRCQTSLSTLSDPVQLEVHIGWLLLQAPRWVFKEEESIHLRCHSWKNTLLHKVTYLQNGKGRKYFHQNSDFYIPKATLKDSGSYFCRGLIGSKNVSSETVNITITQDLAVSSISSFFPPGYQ

Kd [1]: 349 nM
kon [2]: 1.03e+07 M⁻¹ s⁻¹
Kd [3]: 1000 nM
Kd [4]: 0.9 nM
Kd [5]: 791 nM
koff [5]: 0.126 s⁻¹
kon [5]: 160000 M⁻¹ s⁻¹
Kd [6]: 342 nM
koff [6]: 0.0284 s⁻¹
kon [6]: 83100 M⁻¹ s⁻¹
B1: AB0089 TriNKET (bispecific antibody, human IgG1, kappa)
chain: QLQLQESGPGLVKPSETLSLTCTVSGFSLTNYGLHWIRQPPGKCLEWIGVIWVGGATDYNPSLKSRVTISVDTSKNQFSLKLSSVQAADTAVYYCAKGDYGDTLDYWGQGTLVTVSSGGGGSGGGGSGGGGSGGGGSDIQMTQSPSSLSASVGDRVTITCHASQNINFWLSWYQQKPGKAPKLLIYEASNLHTGVPSRFSGSGSGTDFTLTISSLQPEDFATYYCQQSHSYPLTFGCGTKLEIKGSDKTHTCPPCPAPELLGGPSVFLFPPKPKDTLMISRTPEVTCVVVDVSHEDPEVKFNWYVDGVEVHNAKTKPREEQYNSTYRVVSVLTVLHQDWLNGKEYKCKVSNKALPAPIEKTISKAKGQPREPRVYTLPPCRDELTKNQVSLTCLVKGFYPSDIAVEWESNGQPENNYKTTPPVLVSDGSFTLYSKLTVDKSRWQQGNVFSCSVMHEALHNHYTQKSLSLSPG
heavy: EVQLVESGGGLVKPGGSLRLSCAASGFTFSSYSMNWVRQAPGKGLEWVSSISSSSSYIYYADSVKGRFTISRDNAKNSLYLQMNSLRAEDTAVYYCARGAPIGAAAGWFDPWGQGTLVTVSSASTKGPSVFPLAPSSKSTSGGTAALGCLVKDYFPEPVTVSWNSGALTSGVHTFPAVLQSSGLYSLSSVVTVPSSSLGTQTYICNVNHKPSNTKVDKKVEPKSCDKTHTCPPCPAPELLGGPSVFLFPPKPKDTLMISRTPEVTCVVVDVSHEDPEVKFNWYVDGVEVHNAKTKPREEQYNSTYRVVSVLTVLHQDWLNGKEYKCKVSNKALPAPIEKTISKAKGQPREPQVCTLPPSRDELTENQVSLTCLVKGFYPSDIAVEWESNGQPENNYKTTPPVLDSDGSFFLYSWLTVDKSRWQQGNVFSCSVMHEALHNHYTQKSLSLSPG
light: DIQMTQSPSSVSASVGDRVTITCRASQGISSWLAWYQQKPGKAPKLLIYAASSLQSGVPSRFSGSGSGTDFTLTISSLQPEDFATYYCQQGVSFPRTFGGGTKVEIKRTVAAPSVFIFPPSDEQLKSGTASVVCLLNNFYPREAKVQWKVDNALQSGNSQESVTEQDSKDSTYSLSSTLTLSKADYEKHKVYACEVTHQGLSSPVTKSFNRGEC
notes: F3' format heterodimer of three chains; human IgG1 Fc with EW-RVT and Y349C/S354C mutations; also called AB0089 Lot AB0089-002; CLEC12A TriNKET AB0089
